Measurements published in publication PMC7865940, “Effect of DNA Glycosylases OGG1 and Neil1 on Oxidized G-Rich Motif in the KRAS Promoter”.

Target: OGG1 (hOGG1, 8-oxoguanine glycosylase) (UniProt O15527 1-345)
Experiment: EMSA; two retarded bands (1:1 and 1:2 suggested); not cleaved; EMSA buffer A: 50 mM Tris-HCl pH 7.4, 100 mM NaCl (duplex) or 100 mM KCl (G4), 1 mM EDTA, 5 mM NaF, 1 mM Na3VO4, 1 mM DTT, 2.5 ng/uL poly[dI-dC], 8% glycerol; 8 nM DNA, 0/1/5 uM protein (also given as 1 and 5 ug), 15 min; native 5% PAGE in TBE at 20 C (Results give buffer B for the G4 incubation)
Conditions: protein: recombinant; tags: N-terminal His; label: 5'-32P on G-rich strand; annealed with complementary strand in 100 mM NaCl

OGG1 (hOGG1, 8-oxoguanine glycosylase), sequence (O15527 whole entry): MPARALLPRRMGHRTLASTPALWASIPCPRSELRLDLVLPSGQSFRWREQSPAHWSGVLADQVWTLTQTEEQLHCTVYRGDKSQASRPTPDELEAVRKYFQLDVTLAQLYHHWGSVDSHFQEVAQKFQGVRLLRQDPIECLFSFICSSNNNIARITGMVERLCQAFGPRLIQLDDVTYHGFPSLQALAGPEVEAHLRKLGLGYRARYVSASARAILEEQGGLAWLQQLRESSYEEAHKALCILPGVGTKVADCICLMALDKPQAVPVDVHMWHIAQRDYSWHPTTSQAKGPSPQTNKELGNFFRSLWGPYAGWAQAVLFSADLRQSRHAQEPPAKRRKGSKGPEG

B1: 32R wild-type duplex (dsDNA)
DNA 1: AGGGCGGTGTGGGAAGAGGGAAGAGGGGGAGG
DNA 2: CCTCCCCCTCTTCCCTCTTCCCACACCGCCCT
binding result: binds
